± gives the uncertainty stated by the source.

This note sets out measurements from the Human Domainome abundance scans (Beltran et al. 2025).

Sequences and labels used below:
B1: CD2-associated protein, residues 271 to 331; numbered along this chain, Q9Y5K6 (parent)
chain: KEYCRTLFAYEGTNEDELTFKEGEIIHLISKETGEAGWWRGELNGKEGVFPDNFAVQINEL

The variants in the series derive from B1. Description: abundance fitness (aPCA) (normalised: wild type 0, dead -1); higher = more abundant; growth selection in yeast, the domain comes from the species named. The following applies: Homo sapiens.
For L61Q, the abundance fitness was 0.113 ± 0.16.

L61I: the abundance fitness is -0.29 ± 0.23.

As for K21L, the abundance fitness was -0.203 ± 0.057. Turning to K21I, the abundance fitness is -0.265 ± 0.081. The same measure for K21W: -0.538 ± 0.12; for K21F: -0.42 ± 0.099; for T13D: -0.185 ± 0.085.

On to T13S, for which the abundance fitness was -0.051 ± 0.053.

For the variant T13W, the abundance fitness is -0.475 ± 0.093. The same measure for T13H: -0.197 ± 0.12; for T13Q: 0.122 ± 0.083. The same measure for D16M: -0.194 ± 0.057; for D16S: -0.003 ± 0.048; for D16L: -0.091 ± 0.04. Then D16G, with 0.051 ± 0.048; and D16H, with -0.008 ± 0.098. With S30P, the abundance fitness is -0.71 ± 0.1.

On to S30G, for which the abundance fitness is -0.328 ± 0.057. In the case of L28I, the abundance fitness is -0.068 ± 0.11. Then L28G, with -0.778 ± 0.077; and L28H, with -0.623 ± 0.13. The same measure for L28Q: -0.913 ± 0.17.

On to V56W, for which the abundance fitness was -0.434 ± 0.14. Then V56M, with -0.073 ± 0.1. Then V56Q, with -0.226 ± 0.18; and F20E, with -0.91 ± 0.13; and F20H, with -0.603 ± 0.18. Then F20A, with -0.808 ± 0.089. For F20Q, the abundance fitness was -0.629 ± 0.11. In the case of F20D, the abundance fitness was -0.523 ± 0.14. Then N59V, with -0.349 ± 0.13. For N59H, the abundance fitness was -0.1 ± 0.12.

As for N59P, the abundance fitness was -0.032 ± 0.13.

Turning to N59G, the abundance fitness is -0.037 ± 0.087. The same measure for G37R: -0.651 ± 0.09. The same measure for G37N: -0.747 ± 0.16; for G37V: -0.647 ± 0.1; for G37D: -0.617 ± 0.17. G37I: the abundance fitness is -0.613 ± 0.2.

Regarding L43K, the abundance fitness was -0.156 ± 0.073. Then L43D, with -0.458 ± 0.18; and L43G, with -0.766 ± 0.13. Then L43S, with -0.411 ± 0.071; and L43H, with -0.522 ± 0.25; and D52N, with 0.008 ± 0.28.

D52F: the abundance fitness is -0.142 ± 0.13. Then D52A, with 0.053 ± 0.1. Then D52E, with 0.043 ± 0.083; and K46G, with -0.924 ± 0.24; and K46P, with -1.05 ± 0.19. Then K46C, with -0.056 ± 0.27; and K46R, with 0.012 ± 0.056.

With V49R, the abundance fitness turned out to be 0.029 ± 0.036.

With W38A, the abundance fitness was -0.502 ± 0.076.

Take W38E: the abundance fitness was -0.781 ± 0.19. Then W38H, with -0.349 ± 0.12; and W38N, with -0.787 ± 0.13. Then W38V, with -0.249 ± 0.069; and W38D, with -0.825 ± 0.18; and W38P, with -0.729 ± 0.1. As to W38R, the abundance fitness is -0.216 ± 0.062. Then T6W, with -1.15 ± 0.24. The same measure for T6Q: -0.68 ± 0.14. For the variant T6E, the abundance fitness is -0.698 ± 0.25. For T19M, the abundance fitness is -0.598 ± 0.16. The same measure for T19L: -0.814 ± 0.11; for T19Y: -0.422 ± 0.078; for T19I: -0.693 ± 0.093. As to E24M, the abundance fitness was -0.223 ± 0.052. The same measure for E24A: -0.312 ± 0.057; for E24T: -0.286 ± 0.069; for E24F: -0.993 ± 0.21.

In the case of E24N, the abundance fitness is -0.824 ± 0.13.

On to E60K, for which the abundance fitness came to 0.03 ± 0.085. The same measure for E60P: -0.015 ± 0.081; for E60I: -0.475 ± 0.18; for E60H: 0.13 ± 0.31. On to E60W, for which the abundance fitness was -0.258 ± 0.14. On to N14R, for which the abundance fitness was -0.061 ± 0.066. Then N14I, with -0.202 ± 0.11. With N14K, the abundance fitness is -0.033 ± 0.088. The same measure for N14Q: -0.012 ± 0.081. Then N14L, with -0.4 ± 0.072. The same measure for N14P: -0.756 ± 0.12; for T33I: -0.099 ± 0.14. For the variant T33W, the abundance fitness was -0.331 ± 0.057. Then T33Y, with -0.222 ± 0.1. Regarding T33M, the abundance fitness was -0.468 ± 0.096. Turning to G48H, the abundance fitness was -0.749 ± 0.13. In the case of G48S, the abundance fitness is -0.843 ± 0.071. G48K: the abundance fitness is -0.746 ± 0.17. As for G48F, the abundance fitness is -1.05 ± 0.27. In the case of G48V, the abundance fitness was -0.864 ± 0.087. Then G48W, with -0.949 ± 0.074.

With I58F, the abundance fitness was -0.126 ± 0.11. Then I58R, with -0.417 ± 0.051; and I58A, with -0.151 ± 0.071. With I58C, the abundance fitness was -0.112 ± 0.096. In the case of I58T, the abundance fitness was -0.136 ± 0.074. The same measure for I58W: -0.213 ± 0.065; for Y10A: -0.686 ± 0.14. The same measure for Y10N: -0.831 ± 0.42; for Y10S: -0.598 ± 0.067; for I26Q: -0.734 ± 0.15. As to I26L, the abundance fitness is -0.214 ± 0.056. Then I26M, with -0.555 ± 0.14.

On to N44I, for which the abundance fitness was -0.787 ± 0.11. As for N44R, the abundance fitness was -0.073 ± 0.059. Then G34D, with -0.031 ± 0.17; and G34P, with -0.181 ± 0.13. The same measure for G34I: -0.66 ± 0.22.

Consider G34E, for which the abundance fitness is -0.155 ± 0.15. The same measure for I29D: -0.668 ± 0.24; for I29L: -0.006 ± 0.053. For I29M, the abundance fitness is -0.185 ± 0.067.

On to I29W, for which the abundance fitness is -1.05 ± 0.18. As for E35W, the abundance fitness is -0.358 ± 0.11.

Regarding E35D, the abundance fitness turned out to be 0.02 ± 0.12.

Take I25M: the abundance fitness is -0.064 ± 0.063. For the variant I25T, the abundance fitness is -0.175 ± 0.072.

For the variant I25Q, the abundance fitness is -0.234 ± 0.087. The same measure for I25G: -0.602 ± 0.07; for F50L: -0.668 ± 0.07. For F50W, the abundance fitness was -0.792 ± 0.11. Then F50R, with -0.614 ± 0.066. The same measure for A55E: -0.726 ± 0.13; for A55H: -1.01 ± 0.3; for A55F: -0.492 ± 0.19. Take A55W: the abundance fitness is -0.623 ± 0.086. With A55Y, the abundance fitness is -0.919 ± 0.33. In the case of A55C, the abundance fitness was -0.058 ± 0.096. A55L: the abundance fitness was -0.573 ± 0.068.

For A9R, the abundance fitness was -0.144 ± 0.037. Take A9M: the abundance fitness was -0.291 ± 0.063.
